Drawing on the Human Domainome abundance scans (Beltran et al. 2025), this text covers abundance fitness for 70 variants.

± gives the uncertainty stated by the source.

To fix the notation:
B1: MEF2-activating motif and SAP domain-containing transcriptional regulator, residues 170 to 204; numbered along this chain, Q6ZN01 (parent)
chain: LKLEELTVSELRQQLRLRGLPVSGTKSMLLERMRG

The variants in the series derive from B1. Nature of the series: abundance fitness (aPCA) (normalised: wild type 0, dead -1); higher = more abundant; growth selection in yeast, the domain comes from the species named. Conditions: Homo sapiens.
In the case of LKLEELTVSELRQQLRLRGLHVSGTKSMLLERMRG [P21H], the abundance fitness was -0.727 ± 0.22.

For LKLEELTVSELRQQLRLRGLSVSGTKSMLLERMRG [P21S], the abundance fitness is -0.129 ± 0.061.

On to LKLEELTVSELRQQLRLRGLVVSGTKSMLLERMRG [P21V], for which the abundance fitness was -0.335 ± 0.086.

Turning to LKLEELTVSELRQQLRLRGLYVSGTKSMLLERMRG [P21Y], the abundance fitness was -0.909 ± 0.11.

Turning to LKLEELTVSELRQQLRLRGLGVSGTKSMLLERMRG [P21G], the abundance fitness is -0.297 ± 0.048.

With LKLEELTVSELRQQLRLRGLCVSGTKSMLLERMRG [P21C], the abundance fitness is -0.347 ± 0.096.

On to LKLEELTVSELRQQLRLRGLQVSGTKSMLLERMRG [P21Q], for which the abundance fitness is -0.317 ± 0.058.

For LKLEELTVSELRQQLRLRGLAVSGTKSMLLERMRG [P21A], the abundance fitness was -0.184 ± 0.075.

LKLEELTVSELRQQLRLRGLTVSGTKSMLLERMRG [P21T]: the abundance fitness is -0.235 ± 0.096.

For the variant LKLEELTVSELRQQLRLRGLRVSGTKSMLLERMRG [P21R], the abundance fitness was -0.39 ± 0.048.

For the variant LKLEELTVSELRQQLRLRGLDVSGTKSMLLERMRG [P21D], the abundance fitness is -0.094 ± 0.059.

LKLEELTVSELRQQLRLRGLMVSGTKSMLLERMRG [P21M]: the abundance fitness was -0.655 ± 0.23.

As for LKLEELTVSELRQQLRLRGLNVSGTKSMLLERMRG [P21N], the abundance fitness was -0.303 ± 0.13.

As for LKLEELTVSELRQQLRLRGLWVSGTKSMLLERMRG [P21W], the abundance fitness is -0.854 ± 0.066.

On to LKLEELTVSELRQQLRLRGLFVSGTKSMLLERMRG [P21F], for which the abundance fitness is -1.08 ± 0.26.

LKLEELTVSELRQQLRLRGLEVSGTKSMLLERMRG [P21E]: the abundance fitness was -0.036 ± 0.068.

On to LKLEELTVSELRQQLRLRGLKVSGTKSMLLERMRG [P21K], for which the abundance fitness is -0.494 ± 0.082.

Turning to LKLEELTVSELRQQLRLRGLPVSGEKSMLLERMRG [T25E], the abundance fitness was -0.051 ± 0.06.

With LKLEELTVSELRQQLRLRGLPVSGRKSMLLERMRG [T25R], the abundance fitness was -0.497 ± 0.054.

In the case of LKLEELTVSELRQQLRLRGLPVSGMKSMLLERMRG [T25M], the abundance fitness is -0.517 ± 0.2.

Take LKLEELTVSELRQQLRLRGLPVSGQKSMLLERMRG [T25Q]: the abundance fitness was -0.441 ± 0.15.

With LKLEELTVSELRQQLRLRGLPVSGHKSMLLERMRG [T25H], the abundance fitness is -0.295 ± 0.18.

LKLEELTVSELRQQLRLRGLPVSGCKSMLLERMRG [T25C]: the abundance fitness was -0.43 ± 0.13.

As to LKLEELTVSELRQQLRLRGLPVSGDKSMLLERMRG [T25D], the abundance fitness came out at 0.215 ± 0.096.

Regarding LKLEELTVSELRQQLRLRGLPVSGPKSMLLERMRG [T25P], the abundance fitness is -0.29 ± 0.068.

For LKLEELTVSELRQQLRLRGLPVSGVKSMLLERMRG [T25V], the abundance fitness is -0.435 ± 0.073.

On to LKLEELTVSELRQQLRLRGLPVSGLKSMLLERMRG [T25L], for which the abundance fitness is -0.581 ± 0.075.

Regarding LKLEELTVSELRQQLRLRGLPVSGKKSMLLERMRG [T25K], the abundance fitness is -0.204 ± 0.1.

In the case of LKLEELTVSELRQQLRLRGLPVSGFKSMLLERMRG [T25F], the abundance fitness is -0.608 ± 0.34.

LKLEELTVSELRQQLRLRGLPVSGSKSMLLERMRG [T25S]: the abundance fitness was 0.004 ± 0.069.

Regarding LKLEELTVSELRQQLRLRGLPVSGGKSMLLERMRG [T25G], the abundance fitness was -0.27 ± 0.059.

Turning to LKLEELTVSELRQQLRLRGVPVSGTKSMLLERMRG [L20V], the abundance fitness was -0.575 ± 0.071.

On to LKLEELTVSELRQQLRLRGGPVSGTKSMLLERMRG [L20G], for which the abundance fitness is -0.669 ± 0.067.

Take LKLEELTVSELRQQLRLRGFPVSGTKSMLLERMRG [L20F]: the abundance fitness is -0.329 ± 0.14.

As to LKLEELTVSELRQQLRLRGRPVSGTKSMLLERMRG [L20R], the abundance fitness was -0.914 ± 0.095.

LKLEELTVSELRQQLRLRGSPVSGTKSMLLERMRG [L20S]: the abundance fitness was -0.731 ± 0.35.

Turning to LKLEELTVSELRQQLRLRGIPVSGTKSMLLERMRG [L20I], the abundance fitness was -0.646 ± 0.25.

On to LKLEELTVSELRQQLRLRGQPVSGTKSMLLERMRG [L20Q], for which the abundance fitness was -0.587 ± 0.27.

As to LKLEELTVSELRQQLRLRGEPVSGTKSMLLERMRG [L20E], the abundance fitness is -0.192 ± 0.055.

For the variant LKLEELTVSELRQQLRLRGTPVSGTKSMLLERMRG [L20T], the abundance fitness was -0.879 ± 0.13.

As to LKLEELTVSELRQQLRLRGYPVSGTKSMLLERMRG [L20Y], the abundance fitness was -0.284 ± 0.11.

In the case of LKLEELTVSELRQQLRLRGMPVSGTKSMLLERMRG [L20M], the abundance fitness was -0.005 ± 0.22.

For the variant LKLEELTVSELRQQLRLRGAPVSGTKSMLLERMRG [L20A], the abundance fitness is -0.296 ± 0.075.

As for LKLEELTVSELRQQLRLRGKPVSGTKSMLLERMRG [L20K], the abundance fitness was -0.555 ± 0.11.

Take LKLEELTVSELRQQLRLRGWPVSGTKSMLLERMRG [L20W]: the abundance fitness was -0.626 ± 0.089.

LKLEELTVSELRQQLRLRGLPVSRTKSMLLERMRG [G24R]: the abundance fitness is -0.867 ± 0.1.

Regarding LKLEELTVSELRQQLRLRGLPVSWTKSMLLERMRG [G24W], the abundance fitness was -0.41 ± 0.21.

In the case of LKLEELTVSELRQQLRLRGLPVSLTKSMLLERMRG [G24L], the abundance fitness is -1.01 ± 0.26.

On to LKLEELTVSELRQQLRLRGLPVSQTKSMLLERMRG [G24Q], for which the abundance fitness was -0.935 ± 0.16.

Take LKLEELTVSELRQQLRLRGLPVSETKSMLLERMRG [G24E]: the abundance fitness is -0.335 ± 0.084.

For LKLEELTVSELRQQLRLRGLPVSKTKSMLLERMRG [G24K], the abundance fitness was -1.25 ± 0.2.

In the case of LKLEELTVSELRQQLRLRGLPVSMTKSMLLERMRG [G24M], the abundance fitness was -0.768 ± 0.13.

As for LKLEELTVSELRQQLRLRGLPVSPTKSMLLERMRG [G24P], the abundance fitness was -0.829 ± 0.095.

LKLEELTVSELRQQLRLRGLPVSSTKSMLLERMRG [G24S]: the abundance fitness is -0.817 ± 0.13.

With LKLEELTVSELRQQLRLRGLPVSVTKSMLLERMRG [G24V], the abundance fitness was -0.828 ± 0.069.

With LKLEELTVSELRQQLRLRGLPVSGTSSMLLERMRG [K26S], the abundance fitness was -0.697 ± 0.1.

As for LKLEELTVSELRQQLRLRGLPVSGTLSMLLERMRG [K26L], the abundance fitness is -0.159 ± 0.1.

LKLEELTVSELRQQLRLRGLPVSGTCSMLLERMRG [K26C]: the abundance fitness is -0.761 ± 0.15.

With LKLEELTVSELRQQLRLRGLPVSGTASMLLERMRG [K26A], the abundance fitness was -0.057 ± 0.064.

On to LKLEELTVSELRQQLRLRGLPVSGTRSMLLERMRG [K26R], for which the abundance fitness was determined as 0.048 ± 0.069.

Take LKLEELTVSELRQQLRLRGLPVSGTESMLLERMRG [K26E]: the abundance fitness was -0.379 ± 0.17.

LKLEELTVSELRQQLRLRGLPVSGTDSMLLERMRG [K26D]: the abundance fitness is -0.467 ± 0.32.

Consider LKLEELTVSELRQQLRLRGLPVSGTQSMLLERMRG [K26Q], for which the abundance fitness was -0.221 ± 0.069.

Turning to LKLEELTVSELRQQLRLRGLPVSGTMSMLLERMRG [K26M], the abundance fitness is -0.725 ± 0.33.

For the variant LKLEELTVSELRQQLRLRGLPVSGTWSMLLERMRG [K26W], the abundance fitness was -0.361 ± 0.15.

As to LKLEELTVSELRQQLRLRGLPVSGTGSMLLERMRG [K26G], the abundance fitness was -0.78 ± 0.1.

With LKLEELTVSELRQQLRLRGLPVSGTTSMLLERMRG [K26T], the abundance fitness was -0.42 ± 0.097.

In the case of LKLEELTVSELRQQLRLRGLPVCGTKSMLLERMRG [S23C], the abundance fitness is -0.274 ± 0.16.

For LKLEELTVSELRQQLRLRGLPVAGTKSMLLERMRG [S23A], the abundance fitness was -0.103 ± 0.062.

For LKLEELTVSELRQQLRLRGLPVQGTKSMLLERMRG [S23Q], the abundance fitness is -0.147 ± 0.11.
